# Test results reported in US20200199241A1 (Chugai, published 2020).
# Like-named read-outs stand apart in the source and are kept apart here.
# T1: human FcγRIIa(R) (human, UniProt P12318 36-217)
# T1 construct: also called hFcgRIIa(R); FcγRIIa type R
# T1 chain: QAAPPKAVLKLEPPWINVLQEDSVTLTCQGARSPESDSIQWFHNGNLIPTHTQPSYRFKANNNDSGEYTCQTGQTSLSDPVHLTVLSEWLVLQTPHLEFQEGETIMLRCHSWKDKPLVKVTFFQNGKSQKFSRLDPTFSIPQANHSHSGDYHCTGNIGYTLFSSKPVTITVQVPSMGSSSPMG
# T2: human FcγRIIb (human, UniProt P31994 43-217, limits assumed)
# T2 construct: also called hFcgRIIb; FcγIIB
# T2 sequence: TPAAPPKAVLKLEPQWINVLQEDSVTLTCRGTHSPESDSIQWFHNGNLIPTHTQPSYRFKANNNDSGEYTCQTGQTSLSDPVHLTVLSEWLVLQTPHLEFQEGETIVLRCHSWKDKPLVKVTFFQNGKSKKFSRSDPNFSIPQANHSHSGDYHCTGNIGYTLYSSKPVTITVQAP
# T3: human FcγRIIa(H) (human, UniProt P12318 36-217)
# T3 construct: also called hFcgRIIa(H); FcγRIIa type H
# T3 sequence: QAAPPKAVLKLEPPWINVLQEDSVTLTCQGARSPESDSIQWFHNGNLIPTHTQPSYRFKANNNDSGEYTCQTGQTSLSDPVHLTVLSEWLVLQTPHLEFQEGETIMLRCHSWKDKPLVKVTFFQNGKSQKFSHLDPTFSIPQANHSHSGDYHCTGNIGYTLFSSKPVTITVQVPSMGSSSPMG
# T4: mouse FcγRIV (mouse, UniProt A0A0B4J1G0 21-203)
# T4 construct: bought; also called mFcgRIV; mFcgR IV; the vendor's purification tag not given
# T4 sequence: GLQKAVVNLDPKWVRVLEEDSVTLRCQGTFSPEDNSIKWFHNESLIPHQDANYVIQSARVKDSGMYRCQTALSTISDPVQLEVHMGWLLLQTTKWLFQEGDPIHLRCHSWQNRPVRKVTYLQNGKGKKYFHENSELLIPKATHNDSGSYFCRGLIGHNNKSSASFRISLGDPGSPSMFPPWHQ
# T5: mouse FcγRIIb (mouse, UniProt P08101 30-207, limits assumed)
# T5 construct: bought; also called mFcgRIIb; mFcgR IIb
# T5 sequence (looked up): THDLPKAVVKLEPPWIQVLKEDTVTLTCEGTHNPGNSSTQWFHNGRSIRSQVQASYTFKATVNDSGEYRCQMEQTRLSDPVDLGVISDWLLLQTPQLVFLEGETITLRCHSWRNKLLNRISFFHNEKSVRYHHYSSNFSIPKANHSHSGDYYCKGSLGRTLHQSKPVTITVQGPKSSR
# T6: mouse FcγRI (mouse, UniProt P26151 25-297)
# T6 construct: bought; also called mFcgRI; mFcgR 1
# T6 sequence (looked up): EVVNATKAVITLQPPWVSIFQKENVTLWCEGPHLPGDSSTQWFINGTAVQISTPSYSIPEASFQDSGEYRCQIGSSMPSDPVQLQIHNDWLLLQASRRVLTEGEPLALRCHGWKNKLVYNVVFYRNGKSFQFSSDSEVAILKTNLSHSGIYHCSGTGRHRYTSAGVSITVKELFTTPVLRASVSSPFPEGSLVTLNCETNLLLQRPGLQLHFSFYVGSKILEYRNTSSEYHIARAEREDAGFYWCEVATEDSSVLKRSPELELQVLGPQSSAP
# T7: mouse FcγRIII (mouse, UniProt P08508 31-215)
# T7 construct: bought; also called mFcgRIII; mFcgR III
# T7 sequence (looked up): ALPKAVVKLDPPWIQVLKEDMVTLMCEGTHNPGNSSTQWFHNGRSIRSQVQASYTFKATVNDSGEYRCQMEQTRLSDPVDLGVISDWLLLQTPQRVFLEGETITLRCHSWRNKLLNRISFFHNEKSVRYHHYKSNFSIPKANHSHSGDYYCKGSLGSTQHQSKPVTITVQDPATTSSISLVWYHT
# T8: human FcγRIIa(R) (human, UniProt P12318 36-217)
# T8 construct: also called FcgRIIaR; hFcgRIIa(R)
# T8 chain: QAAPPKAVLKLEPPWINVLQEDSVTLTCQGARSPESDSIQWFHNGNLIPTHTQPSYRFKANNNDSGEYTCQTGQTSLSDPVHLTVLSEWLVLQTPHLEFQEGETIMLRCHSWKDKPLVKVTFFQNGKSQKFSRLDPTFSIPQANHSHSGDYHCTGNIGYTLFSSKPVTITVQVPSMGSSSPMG
# T9: human FcγRIIb (human, UniProt P31994 43-217, limits assumed)
# T9 construct: also called FcgRIIb; hFcgRIIb
# T9 sequence: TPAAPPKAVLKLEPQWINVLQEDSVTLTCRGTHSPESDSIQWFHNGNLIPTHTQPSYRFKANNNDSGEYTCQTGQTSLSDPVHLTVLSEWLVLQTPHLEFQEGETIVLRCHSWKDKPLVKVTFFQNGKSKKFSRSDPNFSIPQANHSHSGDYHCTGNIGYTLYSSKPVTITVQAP
# How the values were obtained:
# [1] = molecular target: T1, human FcγRIIa(R); experiment: SPR, antibody captured by Protein L, human FcγR as analyte, pH 7.4, 25 C
# [2] = molecular target: T2, human FcγRIIb; experiment: as above
# [3] = molecular target: T3, human FcγRIIa(H); experiment: as above
# [4] = molecular target: T10, human FcγRIa (human, UniProt P12314 16-292, limits assumed); experiment: as above
# T10 construct: also called hFcgRIa; hFcgRI
# [5] = molecular target: T11, human FcRn (soluble human FcRn complexed with β2-microglobulin) (human, UniProt P61769 21-119, limits assumed); experiment: SPR, antibody captured by Protein L, human FcRn as analyte, pH 7.0, 25 C
# T11 construct: also called hFcRn
# [6] = molecular target: T11, human FcRn (soluble human FcRn …); experiment: as above; remark: listed apart in the source
# [7] = molecular target: T4, mouse FcγRIV; experiment: SPR, antibody captured by Protein L, mouse FcγR as analyte, pH 7.4, 25 C
# [8] = molecular target: T5, mouse FcγRIIb; experiment: as above
# [9] = molecular target: T6, mouse FcγRI; experiment: as above
# [10] = molecular target: T7, mouse FcγRIII; experiment: as above
# [11] = molecular target: T12, human FcRn (complex with human β2-microglobulin) (human, UniProt P61769 21-119, limits assumed); experiment: hFcRn KD, method not given
# T12 construct: soluble human FcRn complexed with β2-microglobulin was used; also called hFcRn
# [12] = molecular target: T11, human FcRn (soluble human FcRn …); experiment: SPR, antibody captured by Protein L, human FcRn as analyte, pH 7.0, 25 C; remark: listed apart in the source
# [13] = molecular target: T11, human FcRn (soluble human FcRn …); experiment: as above; remark: listed apart in the source
# [14] = molecular target: T1, human FcγRIIa(R); experiment: SPR, antibody captured by Protein L, human FcγR as analyte, pH 7.4, 25 C
# [15] = molecular target: T2, human FcγRIIb; experiment: as above; remark: listed apart in the source
# [16] = molecular target: T3, human FcγRIIa(H); experiment: as above; remark: listed apart in the source
# [17] = molecular target: T10, human FcγRIa; experiment: as above; remark: listed apart in the source
# [18] = molecular target: T1, human FcγRIIa(R); experiment: as above
# [19] = molecular target: T2, human FcγRIIb; experiment: as above; remark: listed apart in the source
# [20] = molecular target: T3, human FcγRIIa(H); experiment: as above; remark: listed apart in the source
# [21] = molecular target: T10, human FcγRIa; experiment: as above; remark: listed apart in the source
# [22] = molecular target: T8, human FcγRIIa(R); experiment: SPR, pH 7.4, antibody captured by Protein L
# [23] = molecular target: T9, human FcγRIIb; experiment: SPR, pH 7.4, antibody captured by Protein L
# T11 sequence (chain, as listed by the source limits assumed, chain 1 of 2): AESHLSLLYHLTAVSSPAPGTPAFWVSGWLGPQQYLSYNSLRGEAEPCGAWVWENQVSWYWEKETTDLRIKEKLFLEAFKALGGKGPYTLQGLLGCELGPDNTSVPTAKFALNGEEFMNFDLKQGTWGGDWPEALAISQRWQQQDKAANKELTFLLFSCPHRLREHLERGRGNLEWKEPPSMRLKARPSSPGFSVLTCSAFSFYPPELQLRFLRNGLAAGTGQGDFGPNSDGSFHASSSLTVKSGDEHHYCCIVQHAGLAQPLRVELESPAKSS
# T11 sequence (P61769 21-119 limits assumed, chain 2 of 2): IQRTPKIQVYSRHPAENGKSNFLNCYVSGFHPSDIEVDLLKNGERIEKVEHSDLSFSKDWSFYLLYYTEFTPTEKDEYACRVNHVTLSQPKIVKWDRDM
# T10 sequence (P12314 16-292 limits assumed): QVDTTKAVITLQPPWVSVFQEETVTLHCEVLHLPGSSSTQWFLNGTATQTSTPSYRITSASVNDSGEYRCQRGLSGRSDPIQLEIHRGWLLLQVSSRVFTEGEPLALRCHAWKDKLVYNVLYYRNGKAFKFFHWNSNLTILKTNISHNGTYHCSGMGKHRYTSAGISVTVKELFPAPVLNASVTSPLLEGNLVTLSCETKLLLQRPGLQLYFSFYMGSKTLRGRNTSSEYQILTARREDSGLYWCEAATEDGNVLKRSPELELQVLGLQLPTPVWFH
# T12 sequence (chain, as listed by the source limits assumed, chain 1 of 2): as the sequence (chain, as listed by the source limits assumed, chain 1 of 2) above
# T12 sequence (P61769 21-119 limits assumed, chain 2 of 2): as the sequence (P61769 21-119 limits assumed, chain 2 of 2) above
binder,measurement,setting,value
"VH3/L(WT)-IgG1-F21 (VH3-IgG1-F21 heavy chain, L(WT)-CK light chain) (antibody, M252Y/V308P/N434Y; copies: 2 + 2) heavy: QVQLQESGPGLVKPSETLSLTCAVSGHSISHDHAWSWVRQPPGEGLEWIGFISYSGITNYNPSLQGRVTISRDNSKNTLYLQMNSLRAEDTAVYYCARSLARTTAMDYWGEGTLVTVSSASTKGPSVFPLAPSSKSTSGGTAALGCLVKDYFPEPVTVSWNSGALTSGVHTFPAVLQSSGLYSLSSVVTVPSSSLGTQTYICNVNHKPSNTKVDKKVEPKSCDKTHTCPPCPAPELLGGPSVFLFPPKPKDTLYISRTPEVTCVVVDVSHEDPEVKFNWYVDGVEVHNAKTKPREEQYNSTYRVVSVLTPLHQDWLNGKEYKCKVSNKALPAPIEKTISKAKGQPREPQVYTLPPSRDELTKNQVSLTCLVKGFYPSDIAVEWESNGQPENNYKTTPPVLDSDGSFFLYSKLTVDKSRWQQGNVFSCSVMHEALHYHYTQKSLSLSP light: not shown",BINDING AMOUNT (RU),[1],145 RU
same,BINDING AMOUNT (RU),[2],63.4 RU
same,BINDING AMOUNT (RU),[3],154 RU
same,BINDING AMOUNT (RU),[4],403 RU
same,Kd,[5],30 nM
same,Kd,[6],30 nM
same,BINDING AMOUNT (RU),[7],242 RU
same,BINDING AMOUNT (RU),[8],112 RU
same,BINDING AMOUNT (RU),[9],315 RU
same,BINDING AMOUNT (RU),[10],371 RU
"antibody with heavy chain VH3-IgG1-FA6a (Heavy Chain A) (antibody, T250V/M252Y/T307Q/V308P/Q311A/D356K/E357K/N434Y/Y436V) heavy: QVQLQESGPGLVKPSETLSLTCAVSGHSISHDHAWSWVRQPPGEGLEWIGFISYSGITNYNPSLQGRVTISRDNSKNTLYLQMNSLRAEDTAVYYCARSLARTTAMDYWGEGTLVTVSSASTKGPSVFPLAPSSKSTSGGTAALGCLVKDYFPEPVTVSWNSGALTSGVHTFPAVLQSSGLYSLSSVVTVPSSSLGTQTYICNVNHKPSNTKVDKKVEPKSCDKTHTCPPCPAPELLGGPSVFLFPPKPKDVLYISRTPEVTCVVVDVSHEDPEVKFNWYVDGVEVHNAKTKPREEQYNSTYRVVSVLQPLHADWLNGKEYKCKVSNKALPAPIEKTISKAKGQPREPQVYTLPPSRKKLTKNQVSLTCLVKGFYPSDIAVEWESNGQPENNYKTTPPVLDSDGSFFLYSKLTVDKSRWQQGNVFSCSVMHEALHYHVTQKSLSLSP light: not shown",Kd,[11],11 nM
"VH3/L(WT)-IgG1-F698 (antibody, name in EU numbering, copies: 2 + 2) heavy: QVQLQESGPGLVKPSETLSLTCAVSGHSISHDHAWSWVRQPPGEGLEWIGFISYSGITNYNPSLQGRVTISRDNSKNTLYLQMNSLRAEDTAVYYCARSLARTTAMDYWGEGTLVTVSSASTKGPSVFPLAPSSKSTSGGTAALGCLVKDYFPEPVTVSWNSGALTSGVHTFPAVLQSSGLYSLSSVVTVPSSSLGTQTYICNVNHKPSNTKVDKKVEPKSCDKTHTCPPCPAPELLGGPSVFLFPPKPKDTLYISRTPEVTCVVVDVSHEDPEVKFNWYVDGVEVHEAKTKPREEQYNSTYRVVSVLQVLHADWLNGKEYKCKVSNKALPAPIEKTISKAKGQPREPQVYTLPPSRDELTKNQVSLTCLVKGFYPSDIAVEWESNGQPENNYKTTPPVLDSDGSFFLYSKLTVDKSRWQQGNVFSCSVMHEALHYHYTQKSLSLSP light: not shown",Kd,[12],22 nM
same,Kd,[13],22 nM
same,BINDING AMOUNT (RU),[14],117 RU
same,BINDING AMOUNT (RU),[15],42.1 RU
same,BINDING AMOUNT (RU),[16],116 RU
same,BINDING AMOUNT (RU),[17],392 RU
same,BINDING AMOUNT (RU),[18],117 RU
same,BINDING AMOUNT (RU),[19],42.1 RU
same,BINDING AMOUNT (RU),[20],116 RU
same,BINDING AMOUNT (RU),[21],392 RU
"VH3-IgG1-F652/L(WT)-CK (antibody, P238D in VH3-IgG1-F11; copies: 2 + 2) heavy: QVQLQESGPGLVKPSETLSLTCAVSGHSISHDHAWSWVRQPPGEGLEWIGFISYSGITNYNPSLQGRVTISRDNSKNTLYLQMNSLRAEDTAVYYCARSLARTTAMDYWGEGTLVTVSSASTKGPSVFPLAPSSKSTSGGTAALGCLVKDYFPEPVTVSWNSGALTSGVHTFPAVLQSSGLYSLSSVVTVPSSSLGTQTYICNVNHKPSNTKVDKKVEPKSCDKTHTCPPCPAPELLGGDSVFLFPPKPKDTLYISRTPEVTCVVVDVSHEDPEVKFNWYVDGVEVHNAKTKPREEQYNSTYRVVSVLTVLHQDWLNGKEYKCKVSNKALPAPIEKTISKAKGQPREPQVYTLPPSRDELTKNQVSLTCLVKGFYPSDIAVEWESNGQPENNYKTTPPVLDSDGSFFLYSKLTVDKSRWQQGNVFSCSVMHEALHYHYTQKSLSLSP light: not shown",binding amount,[22],9.1 RU
same,binding amount,[23],64 RU
